# B1: CD40L: CD40 Ligand, supplied as irradiated CD40L-transfected cells added to immature DC; dendritic cell maturation factor (protein, UniProt P29965 1-261, looked up)
# chain: MIETYNQTSPRSAATGLPISMKIFMYLLTVFLITQMIGSALFAVYLHRRLDKIEDERNLHEDFVFMKTIQRCNTGERSLSLLNCEEIKSQFEGFVKDIMLNKEETKKENSFEMQKGDQNPQIAAHVISEASSKTTSVLQWAEKGYYTMSNNLVTLENGKQLTVKRQGLYYIYAQVTFCSNREASSQAPFIASLCLKSPGRFERILLRAANTHSSAKPCGQQSIHLGGVFELQPGASVFVNVTDPSQVSHGTGFTSFGLLKL
# modifications: full-length expressed on irradiated transfected cells
# notes: CD40 Ligand, supplied as irradiated CD40L-transfected cells added to immature DC; dendritic cell maturation factor
# Tests used:
# [1] = tested on: 51Cr-labeled recipient LB; assay: Inhibition of LB-directed cytotoxicity by granule exocytosis pathway blockers; settings: CMA 1, 10, 100 nM/L for 2 h or SrCl2 5, 25, 50 mM/L for 18 h; one mean given for either reagent; FIG. 5 E:T 5:1
# Source text: Cytolytic activity of a CTL refers to the secretion of the contents of secretory granules into the immediate vicinity of the target cell to which it attaches. The granules contain perforins, various lysosomal enzymes, and calcium binding proteins that destroy the target cell.
# [2] = tested on: JY (A2+) and 221 (A2-) 51Cr-labeled target cells
# [3] = tested on: class I molecules, TAP transporters, PA28, immunoproteasomes in monocytes/DC; assay: Expression of class I molecules, TAP transporters, PA28 and immunoproteasomes by flow cytometry and immunoprecipitation; assay type: cell-based, human; settings: treatment of immature DC
# Source text: To determine if the differences observed between DC treated with LPS, TNF-α, or CD40L in inducing CTL activity of CD8^+ T cells were due to differences in antigen processing and presentation capacity of monocytes, immature DC, and mature DC, the expression levels of class I molecules, TAP transporters, PA28 (an immunoproteasome regulator), and immunoproteasomes were examined by flow cytometry (FACScan, Benton Dickenson, Milano, Italy) and immunoprecipitation with appropriate antibodies. […] The level of expression of class I molecules was further increased by two fold upon treatment with LPS, CD40L, or TNF-α.
# [4] = tested on: JY (A2+) and 221 (A2-) 51Cr-labeled target cells; assay: 51Cr-release assay of HLA-A2 specific CTL activity induced in purified CD8+ TL by dendritic cells
molecule,measurement,setting,value
"C/C=C/[C@H]1O[C@@](O)([C@@H](C)[C@H](O)[C@H](C)[C@H]2OC(=O)/C(OC)=C/C(C)=C/[C@@H](C)[C@@H](O)[C@@H](CC)[C@@H](O)[C@H](C)C/C(C)=C/C=C/[C@@H]2OC)C[C@@H](O[C@H]2C[C@@H](O)[C@H](OC(N)=O)[C@@H](C)O2)[C@@H]1C [CMA, concanamycin A]",mean inhibition of LB-directed cytotoxicity,[1],87%
IL-4: lymphokine added to the CTL induction culture,effect of addition on cytotoxic activity,[2],no effect
IL-6: lymphokine added to the CTL induction culture,effect of addition on cytotoxic activity,[2],no effect
IL-7: cytokine interleukin-7,effect on cytotoxic activity induced by immature DC,[2],no effect
same,enhancement of cytotoxic activity,[2],approximately three fold
IL-12: cytokine interleukin-12,substitution for CD40L in inducing cytotoxic activity,[2],two of the four
lipopolysaccharide [LPS],further increase of expression of class I molecules,[3],two fold
same,induction of cytotoxic activity from purified CD8+ T cells by treated DC,"[4]; DC treated with LPS 20 ng/ml, TNF-α 20 ng/ml (40 h) or irradiated CD40L-transfected cells, FIG. 1A",only CD40L treated DC were capable of inducing cytotoxic activity
tumor necrosis factor-α [TNF-α],further increase of expression of class I molecules,[3],two fold
B1,further increase of expression of class I molecules,[3],two fold
same,CD8+ cell populations in which CTL activity was detected,"[4]; CD40L-treated DC, four CD8+ populations tested",three of the four

# Source: patent US20020119121A1, “Compositions and methods for inducing specific cytolytic T cell responses” (priority 2000, published 2002)
